Tests used:
Experiment in all cases: ELISA: Fc-His proteins (1 nM) captured on anti-6-His antibody, antibody A 10 µg/mL with human IgG 100 µg/mL, HRP anti-mouse IgG, OD450 as % of mouse EphA4-Fc-His
[1] = target: T1, mouse EphA7 extracellular region-Fc-His protein (mouse; human, UniProt Q61772 28-555)
T1 construct: extracellular domain; not shown: Fc region of human IgG1; histidine tag
T1 sequence (looked up): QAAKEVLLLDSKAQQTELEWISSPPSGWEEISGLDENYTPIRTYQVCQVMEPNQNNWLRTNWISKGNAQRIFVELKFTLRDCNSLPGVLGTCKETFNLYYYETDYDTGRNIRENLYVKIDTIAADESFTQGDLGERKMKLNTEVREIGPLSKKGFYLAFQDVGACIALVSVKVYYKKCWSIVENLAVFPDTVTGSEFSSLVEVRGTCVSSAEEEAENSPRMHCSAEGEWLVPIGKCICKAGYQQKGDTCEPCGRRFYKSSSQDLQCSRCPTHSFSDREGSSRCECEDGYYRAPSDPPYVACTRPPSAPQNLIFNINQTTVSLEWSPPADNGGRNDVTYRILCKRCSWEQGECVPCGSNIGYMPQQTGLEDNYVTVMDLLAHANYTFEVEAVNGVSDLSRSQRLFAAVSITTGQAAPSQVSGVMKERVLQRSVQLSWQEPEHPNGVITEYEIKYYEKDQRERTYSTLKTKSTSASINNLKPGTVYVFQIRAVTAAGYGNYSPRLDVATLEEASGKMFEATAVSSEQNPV
Procedure: (§1) Rabbit anti-6-His antibodies (Bethyl Laboratories) were coated onto the wells of a 96-well plate (Nunc). After incubating at 4° C. overnight, the wells were blocked at room temperature for 1 hour by 1% Block Ace (DS Pharma Biomedical). After washing 3 times with 0.05% Tween 20/PBS (Thermo […]), each Eph receptor of mouse extracellular region-Fc-His protein (final concentration 1 nM) was seeded into each well, and incubated at room temperature for 1 hour. After washing 3 times, human IgG solution (100 μg/mL, Sigma) and antibody A (10 μg/mL) were supplemented to the wells, and incubated at room temperature for 1 hour. Horseradish peroxidase-labeled donkey anti-mouse IgG antibody (Jackson ImmunoResearch Laboratories) was added, and incubated at room temperature for 1 hour. After washing 3 times, TMBZ (3,3′,5,5′-tetramethylbenzidine, Sigma) solution was added to the wells, and upon confirmation of modest coloring, an equal amount of quenching solution (1 N H₂SO₄, Wako Pure Chemicals) was added to the wells, and absorbance at 450 nm was read by a microplate reader (PerkinElmer).

[2] = target: T2, mouse EphB2 extracellular region-Fc-His protein (mouse; human, UniProt P54763 19-543)
T2 construct: extracellular domain; not shown: Fc region of human IgG1; histidine tag
T2 sequence (looked up): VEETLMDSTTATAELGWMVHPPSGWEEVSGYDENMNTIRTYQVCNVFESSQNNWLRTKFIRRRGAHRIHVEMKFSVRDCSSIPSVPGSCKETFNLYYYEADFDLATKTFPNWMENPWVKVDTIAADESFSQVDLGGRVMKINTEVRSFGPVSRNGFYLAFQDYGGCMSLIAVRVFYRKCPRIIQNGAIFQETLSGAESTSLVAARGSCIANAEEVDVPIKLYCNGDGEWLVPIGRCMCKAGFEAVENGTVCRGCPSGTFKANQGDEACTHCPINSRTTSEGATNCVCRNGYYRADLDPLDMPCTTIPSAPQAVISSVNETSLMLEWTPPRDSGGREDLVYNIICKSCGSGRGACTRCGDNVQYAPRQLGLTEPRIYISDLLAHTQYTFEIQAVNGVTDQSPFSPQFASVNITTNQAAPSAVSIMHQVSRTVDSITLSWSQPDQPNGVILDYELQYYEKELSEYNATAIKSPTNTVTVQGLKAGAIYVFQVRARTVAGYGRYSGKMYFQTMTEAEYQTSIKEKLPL
Procedure: as §1

[3] = target: T3, mouse EphB4 extracellular region-Fc-His protein (mouse; human, UniProt P54761 16-539)
T3 construct: extracellular domain; not shown: Fc region of human IgG1; histidine tag
T3 sequence (looked up): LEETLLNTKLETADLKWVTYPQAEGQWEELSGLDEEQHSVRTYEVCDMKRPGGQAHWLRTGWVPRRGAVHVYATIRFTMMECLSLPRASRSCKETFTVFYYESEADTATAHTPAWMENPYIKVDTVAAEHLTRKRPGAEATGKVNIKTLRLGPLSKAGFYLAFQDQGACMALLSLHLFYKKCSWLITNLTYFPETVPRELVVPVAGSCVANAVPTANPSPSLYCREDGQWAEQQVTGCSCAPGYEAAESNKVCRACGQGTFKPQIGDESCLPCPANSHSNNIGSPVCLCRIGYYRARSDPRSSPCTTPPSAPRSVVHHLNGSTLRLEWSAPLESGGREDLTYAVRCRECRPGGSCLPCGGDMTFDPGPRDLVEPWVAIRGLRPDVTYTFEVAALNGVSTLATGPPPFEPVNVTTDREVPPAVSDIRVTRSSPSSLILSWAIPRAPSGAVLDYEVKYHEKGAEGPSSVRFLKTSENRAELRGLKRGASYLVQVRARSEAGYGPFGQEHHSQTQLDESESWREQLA
Procedure: as §1

Measured: binding result

B1: mouse anti-EphA4 monoclonal antibody (antibody A) (antibody, mouse IgG1, kappa, V domains shown)
VH: QVQLKQSGPSLVQPSQSLSITCTVSGFSLTRYGVHWVRQSPGKGLEWLGVIWRGGSTDYNAAFMSRLSITKDNSKSQVFFKMNSLQADDTAIYYCAKESLFGVYYDYGYYSMDYWGQGTSVTVSS
VL: DIQMTQSPSSLSASLGERVSLTCRASQEISGYLSWLQQKPDGTIKRLIYAASTLDSGVPKRFSGSRSGSDYSLTISSLESEDFADYYCLQYASYPLTFGAGTKLELKR
notes: purified from hybridoma supernatant
no binding (tested: 10 µg/mL): all assays above
